Reference: publication PMC2858704

biological target: T1, PefR (Gbs1402) (Streptococcus agalactiae NEM316) (UniProt Q8E4J9); assay: EMSA; settings: EMSA: 5% glycerol, 20 mM Tris-HCl pH 8, 50 mM KCl, 0.2 mM MgCl2, 1 mM EDTA, 0.2 mM DTT, 0.3 uM BSA, 15 ul, 37 C 20 min; 8% PAGE in 1x TBE, ethidium bromide …
T1 sequence: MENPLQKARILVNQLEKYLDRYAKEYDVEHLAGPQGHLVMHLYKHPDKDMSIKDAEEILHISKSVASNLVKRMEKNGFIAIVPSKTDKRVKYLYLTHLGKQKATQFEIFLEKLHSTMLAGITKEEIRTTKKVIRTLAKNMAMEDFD

| Sequence | binding |
| --- | --- |
| ATTTGTATTTTACTATCATTTACATTAAAAATCAATATAAATTTATAATTAAAAATATAAAAAGCGAACATATATTTTTAATATTAAAAAGTAAGCGAAATCATTTTTTATTTGACGAATGATAGGTTTTTTTTAGAAATATTAATGTAAAAATAGTTCTCACGGTAACTTTTAATTGACAATTAATAAAGGTTGTTTTAAAATAGTTCTCACGATAACTATTAAAGGAGTATTATTATGGAGAATC (double strand) [pefRCD promoter fragment (248 bp)] | binds |
| CTTGTTGAGCCGTTGACAACGAAATGTTAAAGCTATTCATCAAAGTTGGGATAGCCGTTCCCAAACTTGTCTGATTTAACACCCCTGCAAATGTAGCAATCAACAATAAGGTGATC (double strand) [control pefA internal fragment (116 bp)] | no binding |
| GCGTAGAAGTCATTAAATGGAGAACGCTTTATTAGGAAAAATAGTGGGGAGATATTTTAGAAAAAGGAAATAATGATGTTTTGAAAAAAATAGTTTCTATGAGAATCTTTTTCTTGACAATAAAATTTAGCTATTATAAAATAGTTCTCACGATAACTAAAATAATGATTTTTTCAGAAAATAATATTATTTATTGATTAAAAAATCAAAAAATAACCTTATAAGACCTATTTGTTATTCTTAAAAGATATTAGTTAAAATCAGAAATAGAGATTGGAGATA (double strand) [pefAB promoter fragment (281 bp)] | binds |
